Measured values from article PMC3025356, “Mechanism of the Ca^2+-Dependent Interaction between S100A4 and Tail Fragments of Nonmuscle Myosin Heavy Chain IIA” (Journal of Molecular Biology, 2011).
Entries after “also recorded” stand apart in the source; their conditions may differ.

Assays:
[1] = biological target: T1, S100A4 (Homo sapiens, UniProt P26447); test: Quin-2 fluorescence, Ca^2+ dissociation from S100A4 in the presence of target peptides; assay type: binding
T1 construct: We used full-length S100A4 for this analysis; made in house; host or cells: Escherichia coli BL21(DE3)
Procedure: Ca^2+ dissociation measurements for wild-type S100A4, using Quin-2 as described above, were repeated as a control for the effect of target peptides on this process. On mixing 10 μM S100A4 in the presence of Ca^2+ with 100 μM Quin-2, the observed profile was fitted to a single exponential with kobs = 17 s^− 1 (Fig. 5a; cf. k− 1 in Scheme 1).
Fig. 5 Dissociation of Ca^2+ from S100A4 in the absence and in the presence of target peptides monitored using Quin-2 fluorescence. (a) Mixed with 100 μM Quin-2 was 10 μM S100A4 + 50 μM Ca^2+ (stopped-flow reaction chamber concentrations). A superposed fit to a single exponential yields kobs = 17 s^− 1. […] (d) As in (a), but with 2.5 μM M200 premixed with 5 μM S100A4. A biphasic exponential fit yielded rate constants of 13 s^− 1 (A = 26%) and 0.30 s^− 1 (A = 74%). […] Experiments were carried out in either 20 mM NaCl, 20 mM Tris, 1 mM DTT, and 100 μM Ca^2+ at pH 7.5 and 20 °C (a and b; cf. Malashkevich et al.[17]), or 100 mM NaCl, 10 mM Hepes, and 100 μM Ca^2+ at pH 7.5 and 20 °C (c and d). […] Rate constants were unaffected by the inclusion of 1 mM Mg^2+.
Stopped-flow measurements were carried out using an SX18-MV apparatus (Applied Photophysics Ltd., Leatherhead, UK) with a dead time of 1.5 ms.[40] Records were generally captured on a logarithmic time base. Absorption (turbidity) measurements were usually recorded using a 10-mm pathlength, while fluorescence was recorded with a 2-mm pathlength for excitation and emission. The stated concentrations of components refer to the reaction chamber after mixing, unless otherwise indicated. Tyrosine fluorescence was excited at 280 nm, and the emission was collected through a UG11 bandpass filter plus a 305-nm longpass filter.[18] Fluorescein fluorescence was excited at 480 nm, and the emission was detected through a 515-nm longpass filter. Quin-2 fluorescence was measured by excitation at 336 nm, and emission was collected with a 455-nm longpass filter. For simultaneous recording of light scatter, a second channel was monitored through a UG11 filter. Rate constants were obtained by fitting to single-exponential or double-exponential functions using Kaleidagraph (Synergy Software) or Applied Photophysics Pro-Data software. Modeling of kinetic schemes was performed using Berkeley Madonna software.

[2] = CD / helical stability of M111; assay type: physicochemical; settings: 0.05 mM protein
Procedure: CD spectra were measured on a JASCO J-715 spectropolarimeter equipped with a JASCO PTC-348WI temperature-controlled unit at 0.05 mM protein solutions using a 1-mm pathlength microcuvette.

[3] = increasing concentrations of M111

T1 sequence (P26447 whole entry): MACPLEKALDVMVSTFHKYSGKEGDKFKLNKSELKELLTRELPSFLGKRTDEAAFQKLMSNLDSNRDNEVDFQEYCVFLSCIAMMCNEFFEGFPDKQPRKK

fast-phase amplitude ([1]; 5 μM M111, 10 μM S100A4): 6%
slow-phase amplitude ([1]; 5 μM M111, 10 μM S100A4): 94%
slow-phase rate constant ([1]; 5 μM M111, 10 μM S100A4, 50 μM Ca^2+, 100 μM Quin-2): 0.36 s⁻¹
fast-phase rate constant ([1]; 5 μM M111, 10 μM S100A4, 50 μM Ca^2+, 100 μM Quin-2, residual unbound S100A4): 21 s⁻¹
slower release of Ca^2+ ([1]; in presence of coiled-coil fragments): 0.3–0.5 s^− 1
fast-phase rate constant [1, 3]: 20 s^− 1
slow-phase rate constant [1, 3]: 0.4 s^− 1
Ca^2+ dissociation rate constant from complex (k− 3), comparison ([1]; peptide–S100A4–Ca^2+ complex): 0.3 s^− 1
B1: M111: His-tagged human NM-MHC IIA residues 1850-1960, V1913I substitution (protein, UniProt P35579 1850-1960, looked up, variant V1913I)
chain: QVDDERRNAEQYKDQADKASTRLKQLKRQLEEAEEEAQRANASRRKLQRELEDATETADAMNREISSLKNKLRRGDLPFVVPRRMARKGAGDGSDEEVDGKADGAEAKPAE
modifications: His tag
notes: His-tagged human NM-MHC IIA residues 1850-1960, V1913I substitution
helical structure stability [2]: high helical content detected for the fragment by CD below 20 °C; also recorded: only marginally stable at 20 °C
